Targets include MARK1(h) (human) (UniProt Q9P0L2); ErbB4(h) (human) (UniProt Q15303); MEK1(h) (human) (UniProt Q02750); CK2(h) (human) (UniProt P68400); p70S6K(h) (human) (UniProt P23443); CHK2(R145W)(h) (human) (UniProt O96017); ZAP-70(h) (human) (UniProt P43403); PKCθ(h) (human) (UniProt Q04759); MLK1(h) (human) (UniProt P80192); Arg(h) (human) (UniProt P42684); Lck(h) activated (human) (UniProt P06239); Pim-1(h) (human) (UniProt P11309); CLK3(h) (human) (UniProt P49761); ASK1(h) (human) (UniProt Q99683); Met(h) (human) (UniProt P08581); cKit(D816V)(h) (human) (UniProt P10721).

Common to all, as to assay: cell-based or functional assay
A further assay addresses T1, SAPK3(h) (human) (UniProt P53778).
T1 sequence (looked up): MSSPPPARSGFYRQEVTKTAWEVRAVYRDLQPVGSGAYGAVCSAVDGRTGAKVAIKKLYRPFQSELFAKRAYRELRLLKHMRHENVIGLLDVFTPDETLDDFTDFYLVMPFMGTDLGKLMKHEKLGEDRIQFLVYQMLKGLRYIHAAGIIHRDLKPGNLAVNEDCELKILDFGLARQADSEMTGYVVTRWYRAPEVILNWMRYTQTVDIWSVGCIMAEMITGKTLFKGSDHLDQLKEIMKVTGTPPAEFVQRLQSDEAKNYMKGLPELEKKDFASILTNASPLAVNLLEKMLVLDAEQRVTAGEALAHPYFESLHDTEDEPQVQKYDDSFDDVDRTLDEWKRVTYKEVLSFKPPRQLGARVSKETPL

The next assay addresses T2, IRAK4(h) (human) (UniProt Q9NWZ3).
T2 sequence (looked up): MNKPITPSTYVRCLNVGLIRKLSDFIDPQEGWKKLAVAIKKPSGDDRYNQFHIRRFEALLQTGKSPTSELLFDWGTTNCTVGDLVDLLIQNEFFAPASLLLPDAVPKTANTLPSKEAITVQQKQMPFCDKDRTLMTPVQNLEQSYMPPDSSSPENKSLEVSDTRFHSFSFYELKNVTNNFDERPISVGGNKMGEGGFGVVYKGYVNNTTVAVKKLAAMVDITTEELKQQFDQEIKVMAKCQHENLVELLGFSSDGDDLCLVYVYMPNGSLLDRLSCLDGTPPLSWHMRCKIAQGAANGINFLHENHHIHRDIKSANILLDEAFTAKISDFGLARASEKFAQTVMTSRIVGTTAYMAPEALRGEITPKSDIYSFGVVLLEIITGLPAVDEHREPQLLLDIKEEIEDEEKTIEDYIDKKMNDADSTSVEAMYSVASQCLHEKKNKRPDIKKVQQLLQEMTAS

The target of another assay is T3, Ret(V804M)(h) (human) (UniProt P07949).
T3 sequence (looked up): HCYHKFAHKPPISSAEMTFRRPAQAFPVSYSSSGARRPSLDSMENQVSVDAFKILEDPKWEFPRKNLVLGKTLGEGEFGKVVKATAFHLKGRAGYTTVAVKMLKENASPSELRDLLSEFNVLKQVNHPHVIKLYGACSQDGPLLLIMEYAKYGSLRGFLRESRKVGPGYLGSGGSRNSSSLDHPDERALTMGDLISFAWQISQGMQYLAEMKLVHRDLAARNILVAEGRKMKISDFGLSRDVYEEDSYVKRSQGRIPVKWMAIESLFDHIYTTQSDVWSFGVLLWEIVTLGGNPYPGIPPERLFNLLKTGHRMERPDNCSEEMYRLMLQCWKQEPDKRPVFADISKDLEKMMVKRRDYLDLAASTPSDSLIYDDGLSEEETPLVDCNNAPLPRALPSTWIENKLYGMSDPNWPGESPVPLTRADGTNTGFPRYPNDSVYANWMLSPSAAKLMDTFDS

The target of another assay is T4, NEK3(h) (human) (UniProt P51956).
T4 sequence (looked up): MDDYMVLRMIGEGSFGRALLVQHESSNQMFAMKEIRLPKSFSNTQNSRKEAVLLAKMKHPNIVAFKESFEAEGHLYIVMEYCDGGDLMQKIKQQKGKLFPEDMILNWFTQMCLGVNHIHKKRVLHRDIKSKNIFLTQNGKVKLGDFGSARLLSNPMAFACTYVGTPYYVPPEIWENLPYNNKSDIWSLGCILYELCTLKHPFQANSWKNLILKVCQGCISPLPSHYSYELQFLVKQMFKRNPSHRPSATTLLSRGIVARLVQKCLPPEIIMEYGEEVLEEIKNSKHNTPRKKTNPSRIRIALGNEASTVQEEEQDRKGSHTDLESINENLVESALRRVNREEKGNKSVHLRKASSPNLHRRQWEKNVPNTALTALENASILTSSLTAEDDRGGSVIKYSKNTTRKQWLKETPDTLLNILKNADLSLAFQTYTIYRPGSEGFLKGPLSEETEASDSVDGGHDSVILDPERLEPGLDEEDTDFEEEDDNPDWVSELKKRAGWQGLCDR

Here are results for three substances from patent US20150064134A1.

Arg(h) (human), sequence (P42684 38-1182 limits assumed): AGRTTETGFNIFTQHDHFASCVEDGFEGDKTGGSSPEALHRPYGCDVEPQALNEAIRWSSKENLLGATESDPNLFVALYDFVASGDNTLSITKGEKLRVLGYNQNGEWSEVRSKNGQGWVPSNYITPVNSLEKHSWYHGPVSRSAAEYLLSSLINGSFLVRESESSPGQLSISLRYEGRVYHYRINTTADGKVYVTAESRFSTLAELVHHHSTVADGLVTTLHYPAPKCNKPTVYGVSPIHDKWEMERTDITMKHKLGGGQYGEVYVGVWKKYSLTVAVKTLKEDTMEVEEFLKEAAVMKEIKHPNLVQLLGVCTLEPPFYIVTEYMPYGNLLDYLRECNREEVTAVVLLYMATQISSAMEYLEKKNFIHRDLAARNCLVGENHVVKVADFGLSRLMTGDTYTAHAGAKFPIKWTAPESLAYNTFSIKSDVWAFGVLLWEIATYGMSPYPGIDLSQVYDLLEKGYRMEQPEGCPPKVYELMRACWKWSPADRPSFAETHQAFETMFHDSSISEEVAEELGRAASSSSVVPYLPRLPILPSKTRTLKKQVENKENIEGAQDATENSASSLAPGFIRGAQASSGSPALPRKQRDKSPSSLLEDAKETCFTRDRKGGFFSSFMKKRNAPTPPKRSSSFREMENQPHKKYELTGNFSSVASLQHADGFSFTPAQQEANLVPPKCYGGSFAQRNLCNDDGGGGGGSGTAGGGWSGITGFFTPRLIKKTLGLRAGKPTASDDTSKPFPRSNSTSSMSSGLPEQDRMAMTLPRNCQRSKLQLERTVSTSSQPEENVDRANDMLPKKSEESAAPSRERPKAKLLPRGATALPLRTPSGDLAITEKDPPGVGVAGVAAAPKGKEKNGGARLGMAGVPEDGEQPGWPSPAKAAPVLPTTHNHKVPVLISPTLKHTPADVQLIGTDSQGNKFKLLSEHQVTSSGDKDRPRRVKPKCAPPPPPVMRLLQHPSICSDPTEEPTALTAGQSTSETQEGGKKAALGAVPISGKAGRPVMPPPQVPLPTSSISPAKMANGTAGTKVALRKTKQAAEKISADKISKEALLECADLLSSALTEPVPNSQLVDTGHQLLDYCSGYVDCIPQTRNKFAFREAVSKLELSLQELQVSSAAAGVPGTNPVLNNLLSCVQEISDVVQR
Met(h) (human), sequence (P08581 956-1390 limits assumed): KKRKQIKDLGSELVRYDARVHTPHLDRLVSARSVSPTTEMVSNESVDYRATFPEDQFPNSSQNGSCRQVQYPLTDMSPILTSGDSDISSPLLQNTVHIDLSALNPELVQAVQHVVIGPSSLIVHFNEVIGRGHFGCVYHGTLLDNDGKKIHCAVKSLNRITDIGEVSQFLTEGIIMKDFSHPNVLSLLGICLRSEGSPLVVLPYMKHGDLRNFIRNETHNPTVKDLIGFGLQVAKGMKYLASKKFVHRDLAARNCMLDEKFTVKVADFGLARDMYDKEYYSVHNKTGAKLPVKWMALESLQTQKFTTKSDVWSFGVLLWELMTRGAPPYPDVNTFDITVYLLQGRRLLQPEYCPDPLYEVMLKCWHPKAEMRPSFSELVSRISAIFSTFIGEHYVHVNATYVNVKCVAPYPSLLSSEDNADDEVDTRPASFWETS
cKit(D816V)(h) (human), sequence (P10721 544-976 D816V): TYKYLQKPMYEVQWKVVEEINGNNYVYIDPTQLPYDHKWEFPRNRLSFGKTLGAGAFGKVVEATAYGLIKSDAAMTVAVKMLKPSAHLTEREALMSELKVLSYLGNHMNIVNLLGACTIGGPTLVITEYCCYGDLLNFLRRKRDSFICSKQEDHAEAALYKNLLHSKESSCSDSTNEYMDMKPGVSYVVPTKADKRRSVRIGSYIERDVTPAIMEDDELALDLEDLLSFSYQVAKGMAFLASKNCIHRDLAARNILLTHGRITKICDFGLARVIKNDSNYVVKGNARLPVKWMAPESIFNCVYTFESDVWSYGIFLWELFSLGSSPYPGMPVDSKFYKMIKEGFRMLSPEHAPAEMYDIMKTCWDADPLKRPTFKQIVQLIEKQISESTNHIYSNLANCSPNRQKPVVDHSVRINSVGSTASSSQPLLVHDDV
CHK2(R145W)(h) (human), sequence (O96017 5-543 R145W limits assumed): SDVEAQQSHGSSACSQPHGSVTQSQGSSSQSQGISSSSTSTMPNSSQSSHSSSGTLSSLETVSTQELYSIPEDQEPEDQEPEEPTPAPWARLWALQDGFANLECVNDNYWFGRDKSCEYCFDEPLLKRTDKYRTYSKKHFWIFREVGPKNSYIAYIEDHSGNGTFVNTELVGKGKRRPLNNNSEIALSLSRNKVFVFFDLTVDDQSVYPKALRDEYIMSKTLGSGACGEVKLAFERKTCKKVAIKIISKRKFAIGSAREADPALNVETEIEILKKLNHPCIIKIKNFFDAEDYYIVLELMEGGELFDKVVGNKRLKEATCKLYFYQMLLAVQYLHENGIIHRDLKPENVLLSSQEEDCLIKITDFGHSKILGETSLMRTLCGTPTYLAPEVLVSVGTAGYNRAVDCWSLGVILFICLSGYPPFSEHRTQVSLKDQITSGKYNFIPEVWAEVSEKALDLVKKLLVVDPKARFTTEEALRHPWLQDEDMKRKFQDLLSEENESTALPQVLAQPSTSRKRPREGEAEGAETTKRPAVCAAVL
ZAP-70(h) (human), sequence (P43403 whole entry): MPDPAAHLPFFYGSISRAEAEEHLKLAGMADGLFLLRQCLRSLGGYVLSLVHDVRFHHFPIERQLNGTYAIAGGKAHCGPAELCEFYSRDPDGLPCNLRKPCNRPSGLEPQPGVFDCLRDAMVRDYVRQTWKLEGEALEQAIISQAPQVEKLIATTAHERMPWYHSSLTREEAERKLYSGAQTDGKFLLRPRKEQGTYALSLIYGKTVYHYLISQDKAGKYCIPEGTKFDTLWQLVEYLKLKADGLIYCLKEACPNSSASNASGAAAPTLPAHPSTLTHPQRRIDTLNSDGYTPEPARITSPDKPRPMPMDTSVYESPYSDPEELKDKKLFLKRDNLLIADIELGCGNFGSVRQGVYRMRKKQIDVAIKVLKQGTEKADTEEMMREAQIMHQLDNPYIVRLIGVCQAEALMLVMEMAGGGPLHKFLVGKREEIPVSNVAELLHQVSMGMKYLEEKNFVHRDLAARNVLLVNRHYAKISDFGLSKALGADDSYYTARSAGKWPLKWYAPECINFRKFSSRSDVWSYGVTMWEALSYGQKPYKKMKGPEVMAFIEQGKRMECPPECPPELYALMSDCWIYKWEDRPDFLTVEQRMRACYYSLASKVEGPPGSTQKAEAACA
ErbB4(h) (human), sequence (Q15303 706-991 limits assumed): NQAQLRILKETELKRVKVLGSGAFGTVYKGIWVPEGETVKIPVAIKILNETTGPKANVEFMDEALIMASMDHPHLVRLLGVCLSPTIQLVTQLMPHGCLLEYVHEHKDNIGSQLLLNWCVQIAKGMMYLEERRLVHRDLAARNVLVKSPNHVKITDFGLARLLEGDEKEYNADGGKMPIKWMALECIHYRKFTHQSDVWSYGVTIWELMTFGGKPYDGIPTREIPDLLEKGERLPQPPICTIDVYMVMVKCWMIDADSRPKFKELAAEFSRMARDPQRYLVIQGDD

For MMI-0300 (peptide), the % activity at 100 µM with MARK1(h) (human) was 132%; with ErbB4(h) (human), 40%; with SAPK3(h) (human), 84%; with MEK1(h) (human) it was 77%; with CK2(h) (human) it was 90%; with p70S6K(h) (human), 35%. Besides, the % activity at 100 µM with CHK2(R145W)(h) (human) worked out at 33%; in the assay with ZAP-70(h) (human), 75%; with IRAK4(h) (human) it was 59%; in the assay with PKCθ(h) (human), 88%; in the assay with MLK1(h) (human), 40%; in the assay with Arg(h) (human) it was 72%. Moreover, the % activity at 100 µM with Ret(V804M)(h) (human) worked out at 95%; with Lck(h) activated (human), 243%; in the assay with Pim-1(h) (human), 8%; in the assay with NEK3(h) (human), 92%; with CLK3(h) (human) it was 61%; with ASK1(h) (human) it was 80%. For the same substance, the % activity at 100 µM with Met(h) (human) was 65%; in the assay with cKit(D816V)(h) (human), 60%.
For the substance MMI-0500 (peptide), the % activity at 100 µM turned out to be 110% with MARK1(h) (human); 2% with ErbB4(h) (human); 24% with SAPK3(h) (human); 21% with MEK1(h) (human); 93% with CK2(h) (human); 3% with p70S6K(h) (human). Further, the % activity at 100 µM stood at 3% with CHK2(R145W)(h) (human); 1% with ZAP-70(h) (human); 3% with IRAK4(h) (human); 62% with PKCθ(h) (human); 43% in the assay with MLK1(h) (human); 22% with Arg(h) (human). Moreover, the % activity at 100 µM with Ret(V804M)(h) (human) is 36%; in the assay with Lck(h) activated (human), 76%; with Pim-1(h) (human), 0%; in the assay with NEK3(h) (human) it was 20%; in the assay with CLK3(h) (human), 76%; with ASK1(h) (human), -4%. Besides, the % activity at 100 µM in the assay with Met(h) (human) was found to be 27%; in the assay with cKit(D816V)(h) (human), 30%.
Regarding MMI-0400 (peptide), the % activity at 100 µM came out at 120% with MARK1(h) (human); 0% with ErbB4(h) (human); 79% with SAPK3(h) (human); 77% with MEK1(h) (human); 101% with CK2(h) (human); 33% with p70S6K(h) (human). In addition, the % activity at 100 µM worked out at 31% with CHK2(R145W)(h) (human); 33% with ZAP-70(h) (human); 59% with IRAK4(h) (human); 76% with PKCθ(h) (human); 33% in the assay with MLK1(h) (human); 84% in the assay with Arg(h) (human). Also, the % activity at 100 µM in the assay with Ret(V804M)(h) (human) came to 87%; with Lck(h) activated (human), 216%; with Pim-1(h) (human) it was 7%; with NEK3(h) (human) it was 85%; with CLK3(h) (human), 84%; with ASK1(h) (human) it was 69%. In addition, the % activity at 100 µM with Met(h) (human) came out at 62%; in the assay with cKit(D816V)(h) (human), 35%.
